# From US20160320413A1 (D GEN, published 2016)
# B1: ICSM18 anti-PrP antibody (D-Gen Ltd, product code 0130-01810), biotinylated (antibody, V domains shown)
# VH: EVQLQQSGPELVKPGSSVKISCKASRNTFTDYNLDWVKQSHGKTLEWIGNVYPNNGVTGYNQKFRGKATLTVDKSSSTAYMELHSLTSEDSAVYYCALYYYDVSYWGQGTLVTVSA
# VL: QIVLTQSPAIMSASPGEKVTMTCSASSSVSYMHWYQQKSGTSPKRWIYDTSKLASGVPARFSGSGSGTSYSLTISSMEAEDAATYFCHQWRSNPYTFGGGTKLEIKR
# Target: abnormal human PrP (disease associated PrP, including PrPSc) from vCJD brain homogenate, blood or ur (human, UniProt P04156 23-230)
binder,measurement,value
B1,ratio relative to cut off,1.17
